Experimental data: publication PMC2920127 (Nature structural & molecular biology, 2010)

Target: recombinant full-length His-tagged human PABPC1 (human, UniProt P11940 1-636)
Experiment: pull-down

recombinant full-length His-tagged human PABPC1, sequence (P11940 whole entry): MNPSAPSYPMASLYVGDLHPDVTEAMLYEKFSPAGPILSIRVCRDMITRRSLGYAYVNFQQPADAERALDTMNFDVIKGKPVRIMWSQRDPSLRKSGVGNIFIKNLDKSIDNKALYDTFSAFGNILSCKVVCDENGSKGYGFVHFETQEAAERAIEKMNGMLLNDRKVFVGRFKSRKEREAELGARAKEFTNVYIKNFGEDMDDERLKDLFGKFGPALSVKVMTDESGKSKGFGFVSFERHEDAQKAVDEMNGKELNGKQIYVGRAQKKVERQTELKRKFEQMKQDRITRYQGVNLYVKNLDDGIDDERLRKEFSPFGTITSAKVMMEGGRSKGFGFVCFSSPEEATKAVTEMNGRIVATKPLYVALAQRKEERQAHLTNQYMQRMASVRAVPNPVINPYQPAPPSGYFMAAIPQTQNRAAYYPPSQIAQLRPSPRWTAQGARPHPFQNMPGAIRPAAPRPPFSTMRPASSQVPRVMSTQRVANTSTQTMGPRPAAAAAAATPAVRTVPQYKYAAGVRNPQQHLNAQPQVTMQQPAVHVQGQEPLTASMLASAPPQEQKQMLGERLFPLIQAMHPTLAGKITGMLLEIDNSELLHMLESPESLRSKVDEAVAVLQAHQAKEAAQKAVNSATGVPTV

B1: GST-fused TNRC6C fragment 1364-1601 (domain or fragment, human, UniProt Q9HCJ0-1 1364-1601, looked up)
chain: PHSWSRAKSDSDKISNGSSINWPPEFHPGVPWKGLQNIDPENDPDVTPGSVPTGPTINTTIQDVNRYLLKSGGKLSDIKSTWSSGPTSHTQASLSHELWKVPRNSTAPTRPPPGLTNPKPSSTWGASPLGWTSSYSSGSAWSTDTSGRTSSWLVLRNLTPQIDGSTLRTLCLQHGPLITFHLNLTQGNAVVRYSSKEEAAKAQKSLHMCVLGNTTILAEFAGEEEVNRFLAQGQALPP
binding result: binds

B2: GST-fused TNRC6C fragment 1242-1601 (domain or fragment, human, UniProt Q9HCJ0-1 1242-1601, looked up)
chain: PQTPGLPDLQTKEQQSSPNTFAPYPLAGLNPNMNVNSMDMTGGLSVKDPSQSQSRLPQWTHPNSMDNLPSAASPLEQNPSKHGAIPGGLSIGPPGKSSIDDSYGRYDLIQNSESPASPPVAVPHSWSRAKSDSDKISNGSSINWPPEFHPGVPWKGLQNIDPENDPDVTPGSVPTGPTINTTIQDVNRYLLKSGGKLSDIKSTWSSGPTSHTQASLSHELWKVPRNSTAPTRPPPGLTNPKPSSTWGASPLGWTSSYSSGSAWSTDTSGRTSSWLVLRNLTPQIDGSTLRTLCLQHGPLITFHLNLTQGNAVVRYSSKEEAAKAQKSLHMCVLGNTTILAEFAGEEEVNRFLAQGQALPP
binding result: binds
